{
  "source": "paper PMC6821609",
  "molecular_target": "T1, HNF4α (hepatocyte nuclear factor 4α) (Homo sapiens, UniProt P41235 1-474)",
  "T1 sequence": "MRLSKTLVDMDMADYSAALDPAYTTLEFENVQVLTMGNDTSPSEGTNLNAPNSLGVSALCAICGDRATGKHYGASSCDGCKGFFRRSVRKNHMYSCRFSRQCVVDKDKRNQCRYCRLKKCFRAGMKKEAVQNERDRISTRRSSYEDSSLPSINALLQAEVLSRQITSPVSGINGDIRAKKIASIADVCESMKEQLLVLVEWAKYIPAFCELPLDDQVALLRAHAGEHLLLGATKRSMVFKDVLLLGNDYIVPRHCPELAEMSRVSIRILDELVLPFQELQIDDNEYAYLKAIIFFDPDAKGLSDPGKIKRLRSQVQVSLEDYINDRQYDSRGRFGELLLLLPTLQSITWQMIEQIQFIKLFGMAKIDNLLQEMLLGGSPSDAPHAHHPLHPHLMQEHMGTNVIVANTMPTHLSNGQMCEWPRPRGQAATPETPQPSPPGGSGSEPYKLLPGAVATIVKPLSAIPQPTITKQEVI",
  "test": "EMSA",
  "data": [
    {"binder": "F9-mut (cfa_F9n_mut_Biotin) (dsDNA) DNA 1: CCAGAAGTAAATACAGCTCAACTTGTATTTGGAACAACTGGTCAACC DNA 2: GGTTGACCAGTTGTTCCAAATACAAGTTGAGCTGTATTTACTTCTGG", "values": [
      {"measurement": "binding result", "value": "no binding"}
    ]},
    {"binder": "F9-wt (cfa_F9n_wt_Biotin) (dsDNA) DNA 1: CAGAAGTAAATACAGCTCAACTTGTACTTTGGAACAACTGGTCAACC DNA 2: GGTTGACCAGTTGTTCCAAAGTACAAGTTGAGCTGTATTTACTTCTG", "values": [
      {"measurement": "binding result", "value": "binds"}
    ]}
  ]
}
